The source of these data is paper PMC4335309 (Journal of molecular biology, 2009).

This data set concerns the molecule itself. The experiment in a line: crystal structure.

B1: MukB-D (MukB construct 566–863: hinge domain with part of the coiled coil domain) (domain or fragment, Escherichia coli, UniProt P22523 566-863, looked up)
chain: IASLSDSVSNAREERMALRQEQEQLQSRIQSLMQRAPVWLAAQNSLNQLSEQCGEEFTSSQDVTEYLQQLLEREREAIVERDEVGARKNAVDEEIERLSQPGGSEDQRLNALAERFGGVLLSEIYDDVSLEDAPYFSALYGPSRHAIVVPDLSQVTEHLEGLTDCPEDLYLIEGDPQSFDDSVFSVDELEKAVVVKIADRQWRYSRFPEVPLFGRAARESRIESLHAEREVLSERFATLSFDVQKTQRLHQAFSRFIGSHLAVAFESDPEAEIRQLNSRRVELERALSNHENDNQQQR
For B1, the binding result is on record as “binds”.
